Reference: the supplement of paper PMC9732359
± gives the uncertainty stated by the source.

Experiment: protein stability index of a GFP-peptide fusion (yeast GPS) (PSI 1-4); higher = more stable; sorted into four equal gates, so the index is relative within each strain
Summary of the method: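 Plasmids in a pooled yeast library fused tiled 17-residue yeast protein peptides downstream of GFP and also expressed Cherry. Mid-log cultures grown without leucine were sorted into four equal gates by GFP/Cherry fluorescence ratio. Each gate's plasmids were PCR-amplified and Illumina-sequenced, and reads were matched to strains by barcodes. The protein stability index is derived by multiplying each gate's read frequency by its gate number and summing the results.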

Row | Sequence | protein stability index (doa10∆) | protein stability index (pdr5∆) | protein stability index (san1∆) | protein stability index (ubr1∆)
1 | ETVPDNVKTSVSQLYRI [RPO31] | 2.92 ± 0.1 | 3.16 ± 0.13 | 3.21 ± 0.078 | 3.2 ± 0.069
2 | SGGNNTATIINNESSDD [PCI8] | 2.63 ± 0.091 | 2.65 ± 0.087 | 2.69 ± 0.092 | 3.17 ± 0.055
3 | FDQAGKKVSRRNARATR [RPL13A] | 2.51 ± 0.073 | 3.36 ± 0.057 | 1.92 ± 0.12 | 2.34 ± 0.067
4 | MAATATDKIGRSVPAPG [FAS2] | 2.82 ± 0.081 | 3 ± 0.076 | 3.04 ± 0.073 | 3.01 ± 0.053
5 | RHMALLVDVMTTQGGLT [RPO21] | 1.92 ± 0.15 | 2.38 ± 0.092 | 2.44 ± 0.09 | 
6 | NTKVPVDIVNQWFLQYQ [YML103C/NUP188] | 1.78 ± 0.044 | 2.15 ± 0.038 | 1.85 ± 0.058 | 2.18 ± 0.034
7 | EDFLDKSYYLNTVMLQG [AAR2] | 2.02 ± 0.067 | 2.24 ± 0.097 | 2.24 ± 0.15 | 1.22 ± 0.052
8 | VVFDSNEAPPKTSLADW [YMR153W/NUP53] | 3.19 ± 0.06 | 3.28 ± 0.051 | 3.06 ± 0.073 | 3.33 ± 0.096
9 | GRSDSNTEEKAELQSNL [YGL100W/SEH1] | 1.61 ± 0.037 | 1.64 ± 0.051 | 1.4 ± 0.14 | 1.52 ± 0.039
10 | FIVSGTASDQLFGMCES [PUP3] | 2.41 ± 0.046 | 2.46 ± 0.045 | 2.63 ± 0.056 | 2.53 ± 0.039
11 | GIHDGHIKKLLHQYYGD [FAS1] | 1.44 ± 0.045 | 1.8 ± 0.051 | 1.85 ± 0.098 | 1.31 ± 0.03
12 | LQSIVNEISRNGTMINE [PCI8] | 2.93 ± 0.12 | 2.64 ± 0.13 | 2.67 ± 0.13 | 2.9 ± 0.12
13 | AAELQEKPLTPLKYTKL [SNF6] | 2.94 ± 0.13 | 3.02 ± 0.13 | 2.39 ± 0.17 | 2.78 ± 0.13
14 | LTGSPNNPLVQKKNFLF [ARP7] | 2.9 ± 0.092 | 2.89 ± 0.1 | 2.27 ± 0.16 | 3.18 ± 0.066
15 | NTTKTADTKAPTFTFGS [YLR335W/NUP2] | 3.36 ± 0.08 | 3.33 ± 0.063 | 3.21 ± 0.061 | 3.38 ± 0.057
16 | ASYAKYLIDHIKVEGAV [RPL22A] | 2.95 ± 0.17 | 3.13 ± 0.15 | 2.85 ± 0.092 | 3.23 ± 0.11
17 | RPPNGIKNFKSLLLSSS [SSN2] | 1.51 ± 0.047 | 1.53 ± 0.047 | 1.83 ± 0.12 | 1.48 ± 0.037
18 | SIMPDLYFYRNPEEVEQ [RPS0B] | 2.86 ± 0.082 | 2.95 ± 0.077 | 2.94 ± 0.063 | 2.85 ± 0.06
19 | IEPELFNGYNPEKKEMI [FAS2] | 3.18 ± 0.095 | 3.25 ± 0.13 | 3.33 ± 0.092 | 3.43 ± 0.14
20 | VVSTTAVIESVVNQPTG [FAS1] | 2.06 ± 0.078 | 1.82 ± 0.087 | 1.99 ± 0.11 | 2.1 ± 0.079
21 | ARDIISHNFQNAIFQME [PCI8] | 2.79 ± 0.063 | 2.94 ± 0.069 | 2.75 ± 0.046 | 2.92 ± 0.05
22 | FVSYFGKQIKSTIYNWG [YML103C/NUP188] | 1.67 ± 0.11 | 1.39 ± 0.071 | 1.47 ± 0.099 | 1.6 ± 0.066
23 | DQIEKLREVVELPLLSP [RPT1] | 2.76 ± 0.075 | 3 ± 0.054 | 2.87 ± 0.061 | 2.94 ± 0.073
24 | SRLTLLLRALKTNEESA [PRP8] | 1.91 ± 0.056 | 1.58 ± 0.058 | 1.84 ± 0.09 | 1.97 ± 0.044
25 | NLGEYYAQIGDKDNAEK [RPN7] | 1.92 ± 0.056 | 2.05 ± 0.075 | 2.49 ± 0.087 | 2.47 ± 0.053
